In patent US20060057623:

Target: HDAC1 (histone deacetylase 1), wild-type (UniProt Q13547)
Sequence (Q13547 whole entry): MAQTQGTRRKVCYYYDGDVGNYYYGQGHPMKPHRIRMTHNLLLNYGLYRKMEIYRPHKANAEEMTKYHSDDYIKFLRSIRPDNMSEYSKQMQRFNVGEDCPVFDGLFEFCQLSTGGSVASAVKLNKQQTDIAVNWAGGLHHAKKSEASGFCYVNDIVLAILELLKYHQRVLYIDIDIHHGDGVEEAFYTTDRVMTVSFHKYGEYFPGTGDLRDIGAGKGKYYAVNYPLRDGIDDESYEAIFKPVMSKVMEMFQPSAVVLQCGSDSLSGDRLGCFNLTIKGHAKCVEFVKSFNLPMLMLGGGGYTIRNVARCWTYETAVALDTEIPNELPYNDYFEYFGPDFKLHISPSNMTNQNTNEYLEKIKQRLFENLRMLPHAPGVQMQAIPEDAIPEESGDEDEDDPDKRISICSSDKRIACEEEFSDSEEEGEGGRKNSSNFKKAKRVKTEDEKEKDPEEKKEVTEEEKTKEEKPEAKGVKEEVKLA

“SENP1 catalytically inactive mutant (R630L, K631M)” was tested, and the “deacetylase activity of HDAC1 precipitates” value was “expression of SENP1 mutant did not affect HDAC1's deacetylase activity”.
